Assay results: publication PMC6615252, “The binding affinity of PTPN13’s tandem PDZ2/3 domain is allosterically modulated” (BMC Molecular and Cell Biology, 2019)
Entries after “also recorded” stand apart in the source; their conditions may differ.

T1: PDZ2 domain of PTPN13 (Mus musculus, UniProt Q64512)
T1 construct: pGEX-2 T-PDZ2 (PTPN13 residues 1347–1450); GST (N, cleaved yes); made in house; host or cells: E. coli BL21(DE3)
T1 sequence (Q64512 1347-1450): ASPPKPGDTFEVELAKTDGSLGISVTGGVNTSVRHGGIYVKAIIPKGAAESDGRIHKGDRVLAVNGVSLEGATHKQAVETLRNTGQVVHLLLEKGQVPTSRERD

T2: APC peptide (Homo sapiens)
T2 chain: KRHSGSYLVTSV


Experiments:
PDZ2 domain of PTPN13 = target: T1, PDZ2 domain of PTPN13; test: NMR titration of single PDZ3 domain to 15N-enriched PDZ2 domain; type: binding; conditions: 15N-PDZ2, molar ratio 1:1, 2D 1H-15N-HSQC, 298 K; stoichiometry limited by solubility
Procedure: Thus, we titrated the single PDZ3 domain (residues 1491–1579) to the ^15N-enriched PDZ2 domain (residues 1357–1442) and monitored their interaction by recording a series of 2D ^1H-^15N-HSQC NMR spectra (Fig. 4a). […] However, the final maximal stoichiometry of PDZ2 and PDZ3 was approx. 1:1 due to solubility issues.
NMR spectra were acquired at 298 K on Bruker DRX 600 and AVANCE III HD 700 spectrometers. Typically, NMR samples contained 0.1–0.5 mM uniformly ^13C and/or ^15N-enriched protein in PBS buffer at pH 7.4 including 10% D2O [42–44]. All data were processed with either NMRPipe and analyzed with NMR View or TopSpin (www.bruker.com). The backbone assignments were obtained from the BioMagResBank accession numbers 15,199 (PDZ2/3) and 5131 (PDZ2). The interaction between PDZ2 and PDZ3 was analyzed upon titrating PDZ3 to isotopically ^15N-enriched PDZ2 at a molar ratio of 1:1 at 298 K by recording 2D ^1H-^15N-HSQC NMR spectra. In this study, the numbering scheme of the assigned chemical shifts for PDZ2 (5131) and PDZ23 (15199) has been shifted by one residue so that, for example, T30 according to the BMRB entry 5131 now equals T31. […] The differences in backbone ^1H and ^15N NMR chemical shifts were monitored via 2D ^1H-^15N-HSQC NMR spectra. The weighted ^1HN and ^15N chemical shift differences were calculated according to the following equation [45, 47]: […]

APC peptide = target: T2, APC peptide; test: NMR titration

Row | Molecule | chemical shift differences of PDZ2 upon titration with PDZ3 (PDZ2 domain of PTPN13) | Kd (APC peptide) [mM]
1 | PDZ3: single PDZ3 domain (residues 1491–1579) of PTPN13 (protein, UniProt Q12923 1491-1579, looked up, fragment, PDZ3 domain, single PDZ3 domain (residues 1491–1579) of PTPN13) YSFVTEENTFEVKLFKNSSGLGFSFSREDNLIPEQINASIVRVKKLFPGQPAAESGKIDVGDVILKVNGASLKGLSQQEVISALRGTAP | Only very minor chemical shift differences could be observed, if at all; also recorded: only yielded minor chemical shift differences; also recorded: Only very minor, if at all, chemical shift differences could be observed | 
2 | PTPN13 (PDZ2 in PDZ2/3 tandem) PDZ2 in PDZ2/3 (protein) EVELAKNDNSLGISVTGGVNTSVRHGGIYVKAVIPQGAAESDGRIHKGDRVLAVNGVSLEGATHKQAVETLRNTGQVVHLLLEKG |  | 0.211
3 | PTPN13 (PDZ3 in PDZ2/3 tandem) PDZ3 in PDZ2/3 (protein) EVKLFKNSSGLGFSFSREDNLIPEQINASIVRVKKLFPGQPAAESGKIDVGDVILKVNGASLKGLSQQEVISALRGTAPEVFLLLCRP |  | 2.57
